In patent publication US20060134122A1, “Peptides of syndecan-1 for inhibition of cancer” (priority 2004, published 2006):

B1: GST-mS1ED: recombinant mouse syndecan-1 ectodomain expressed as a fusion protein with GST (protein)
chain: QIVAVNVPPEDQDGSGDDSDNFSGSGTGALPDTLSRQTPSTWKDVWLLTATPTAPEPTSSNTETAFTSVLPAGEKPEEGEPVLHVEAEPGFTARDKEKEVTTRPRETVQLPITQRASTVRVTTAQAAVTSHPHGGMQPGLHETSAPTAPGQPDHQPPRVEGGGTSVIKEVVEDGTANQLPAGEGSGEQDFTFETSGENTAVAAVEPGLRNQPPVDEGATGASQSLLDRKEVLG
modifications: left off: a dimerising Fc or GST
notes: recombinant mouse syndecan-1 ectodomain expressed as a fusion protein with GST
B2: GST-mS4ED: recombinant GST fusion of mouse syndecan-4 ectodomain, specificity control (protein)
chain: ESIRETEVIDPQDLLEGRYFSGALPDDEDAGGSDDFELSGSGDLDDTEEPRPFPEVIEPLVPLDNHIPENAQPGIRVPSEPKELEENEVIPKRAPSDVGDDMSNKVSMSSTAQGSNIFERTE
modifications: left off: a dimerising Fc or GST
notes: recombinant GST fusion of mouse syndecan-4 ectodomain, specificity control

Tests used:
B82L fibroblasts = assay: B82L cell attachment and spreading; assay type: cell-based, mouse; details: for cell attachment and spreading on VN: 5 μg/mL VN, S1ED 1-30 μM, GST and GST-mS4ED 30 μM
From the text: FIGS. 11A-F—Downregulation of mouse Sdc-1 expression by siRNA blocks αvβ5-dependent cell attachment and spreading on VN. FACS analysis for (FIG. 11A) mouse syndecan-1 (mAb 281.2), (FIG. 11B) αv integrin subunit (mAb H9.2B8), (FIG. 11C) mouse Syndecan-4 (mAb KY8.2), (FIG. 11D) human syndecan-1 (mAb B-B4) and (FIG. 11E) FcR^ecto-hS1 chimera (FITC-conjugated hIgG) expression against isotype IgG controls (red-fill) in vector^NEO (FIGS. 11A-C), human syndecan-1 (FIG. 11D) and FcR^ecto-hS1 (FIG. 11E) expressing B82L cells 48 h after transfection with either 600 nM control (Control) or mouse syndecan-1-specific siRNA (siRNA). (FIG. 11F) B82L^NEO empty vector-transfected control cells and B82L cells expressing human syndecan-1 or the FcR^ecto-hS1 chimera were transfected with control or mouse syndecan-1-specific siRNA and seeded on wells coated with either 5 μg/mL VN alone or a mixed substratum of VN plus 60 μg/mL of antibody directed against mouse syndecan-1 (281.2), human syndecan-1 (B-B4) or the FcR^ecto-hS1 chimera (hIgG). Cells were incubated at 37° C. for 2 h, fixed, and stained with rhodamine-conjugated phalloidin.
FIGS. 12A-B—B82L cell spreading on VN is blocked by recombinant Scd-1ED. (FIG. 12A) B82L fibroblasts were plated on 5 μg/mL VN in the absence of other treatment, or in the presence of 30 μM GST, 1-30 μM GST-mS1ED or 30 μM GST-mS4ED (inset), then fixed and stained with rhodamine-phalloidin for visualization. (FIG. 12B) Quantification of cell adhesion in triplicate samples (±S.E.) plated either with no additions, or concentrations of GST-mS1ED ranging from 0-30 μM. […]
The failure of NEO cells to engage the mixed substratum is indicative of the efficient blockade of mouse Sdc-1 expression by the siRNA. It is unlikely that the mouse Sdc-1-siRNA treatment has any non-specific cellular effects since spreading on VN is specifically rescued by the expression of full-length human Sdc-1 (hS1, FIG. 11F). Spreading of the B82L-hS1 cells is indistinguishable from parental cells. However, spreading on VN is not recovered in cells expressing the FcR^ecto-hS1 chimera—a construct in which the syndecan's ectodomain is replaced by the ectodomain of the human Fcγ receptor Ia (FcR^ecto-hS1)—regardless of whether the cells are plated on VN alone, or VN supplemented with 60 μg/mL of hIgG to engage the FcR^ecto-hS1 construct.
Recombinant Sdc-1 ectodomain competitively blocks αvβ5 integin activity. To test whether soluble Sdc-1 ectodomain will compete with the syndecan activation of the αvβ5 integrin, B82L cells were plated on 5 μg/mL VN in the presence of a recombinant GST fusion protein containing either the ectodomain of mouse Sdc-1 (GST-mS1ED) or human Sdc-1 (GST-hS1ED; data not shown).

[1] = test system: MDA-MB-435 human mammary carcinoma cells; assay: Cell spreading assay, MDA-MB-435; assay type: cell-based; details: 2 h, GST-mS1ED 20 μM; for cell spreading on VN: 10 μg/mL VN, LM609 30 μg/mL
Experimental: FIGS. 2A-C—Sdc-1 adhesion-mediated cell spreading correlates with αvβ3 integrin. expression and activity. (FIG. 2A) FACS analysis of αvβ3 integrin expression (mAb LM609) in human mammary carcinoma cells against an IgG isotype control. (FIG. 2B) Depicted on split panels are phalloidin-stained MDA-MB-435 (upper half) and MCF-7 (lower half) cells 2 h after plating on wells coated with mAb B-B4 in plating medium alone or medium containing either 30 μg/mL mAb LM609, 1 μg/mL mAb 13 or 20 μM GST-mS1ED. Bar, 50 μm. (FIG. 2C) Untreated MDA-MB-435, MDA-MB-231 and MCF-7 cells (columns 1 and 4) and cells pretreated in suspension with 1 μg/mL mAb 13 (columns 2 and 3) were seeded on wells coated with either mAb B-B4 or COL I in plating medium alone (columns 1, 2 and 4) or medium containing 20 μM GST-mS1ED (column 3). Cells were incubated at 37° C. for 2 h, fixed, permeabilized and stained with WOW1 and an Alexa 488-conjugated secondary. Panel insets are corresponding phase contrast pictures. Bar, 20 μm.
FIG. 3—MDA-MB-435, but not MCF-7, human carcinoma cells display functional coupling of Sdc-1 and αvβ3 integrins on VN. Depicted are phalloidin-stained cells 2 h after plating on wells coated with 10 μg/mL VN (upper half) or FN (lower half) in plating medium alone or medium containing either 30 μg/mL mAb LM609, 25 μg/mL mAb 13, 20 μM GST-mS1ED or -mS4ED. Bar, 50 μm.
Sdc-1 adhesion-mediated cell spreading correlates with αvβ3 integrin expression and activity. To test whether the αvβ3 integrin's dependence on Sdc-1 extends to other carcinoma cells, the inventors screened a panel of human carcinoma cells with mAb LM609 using FACS analysis. […] To test the collaboration between Sdc-1 and αvβ3 integrin when cells are adherent via Sdc-1, MDA-MB-435 and MCF-7 cells were plated on wells coated with hS1-specific mAb B-B4. While αvβ3-positive MDA-MB-435 cells spread on this antibody substratum, their spreading is blocked (similar to results obtained in the MDA-MB-231; Beauvais and Rapraeger, 2003) by treatment with either mAb LM609 (added either before plating or 30 min after plating, when cells have already begun to spread) or GST-mS1ED protein (which is not recognized by mAb B-B4).
MDA-MB-435, but not MCF-7, human carcinoma cells display functional coupling of Sdc-1 and αvβ3 integrin on VN. To test whether activation of αvβ3 integrin activation on matrix is also functionally coupled to Sdc-1, MDA-MB-435 and MCF-7 cells were plated on either VN or FN (FIG. 3). MDA-MB-435 cells spread on VN and require αvβ3 integrins for this activity as spreading is blocked by mAb LM609. […]

Molecule	cell attachment and spreading on VN (B82L fibroblasts)	lowest concentration tested at which competition occurs (B82L fibroblasts; cells plated on 5 μg/mL VN)	cell spreading on FN ([1]; 10 μg/mL FN, mAb 13 25 μg/mL)	cell spreading on VN [1]	cell spreading on mAb B-B4 ([1]; LM609 30 μg/mL (before or 30 min after plating))
B1	increasing blockade	1 µM	retain their ability to spread	fail to spread	blocked
B2	without effect			no effect	
